Laboratory results published in patent US20240199755A1, “ANTAGONISTS AND AGONISTS OF THE TRANSFERRIN RECEPTOR-2 FOR USE IN THE TREATMENT OF DISEASES OF THE BONE” (Kymab Limited, priority 2018, published 2024).
Entries after “also recorded” stand apart in the source; their conditions may differ.

How the values were obtained:
[1] = system: BMP-2-induced heterotopic ossification; assay: BMP-2-induced heterotopic ossification (HO) mouse model; format: in vivo, mice; conditions: for Heterotopic ossification (bone volume by μCT): after two weeks
Description: Male and female C57BL/6 mice are used for the HO model. The HO is triggered by injecting BMP-2 into the muscle (Wosczyna et al. 2012).
All the mice are fed with standard feed and water ad libitum and are kept in groups of five mice per cage. The mice are exposed to a 12-hour light/dark cycle and air cooling to 23° C. (no special pathogen-free room). Enrichment is provided in the form of cardboard houses and bedding material. The mice are randomly divided into the different treatment groups and the assays are subsequently carried out as blind experiments.
The HO is examined by means of treatment using 2.5 μl of a 1 mg/ml recombinant BMP-2 solution (Thermo Fisher Scientific) or 2.5 μl of a 1 mg/ml Tfr2-ECD mixed with 47.5 μl Matrigel (BD Bioscience) at 0° C. For combination treatment, 2.5 of a 1 mg/ml recombinant BMP-2 solution is mixed with 2.5 μl of a 1 mg/ml Tfr2-ECD and 45 μl Matrigel. The Matrigel mixtures are injected into the musculus tibialis anterior of 10-week-old female wild-type mice. The legs are examined after two weeks.
The bone microarchitecture is analyzed using vivaCT40 (Scanco Medical, Switzerland). The entire lower leg bones are measured at a resolution of 10.5 μm using X-rays of 70 kVp, […] and at an integration time of 200 s. Predefined scripts from Scanco are used to analyze the bone (#1).
Heterotopic ossification (HO): The HO model was performed according to Wosczyna et al^32. Briefly, 2.5 μl of 1 mg/ml recombinant BMP-2 (Thermo Fisher) or 2.5 μl of 1 mg/ml Tfr2-ECD were mixed with 47.5 μl matrigel (BD Bioscience) on ice. For the local combination treatment, 2.5 μl BMP-2 were mixed with 2.5 μl Tfr2-ECD and 45 μl matrigel. The matrigel-mixtures were injected into the midbelly of the tibialis anterior muscle of 10-week-old female WT and Tfr2-deficient mice. Some mice were treated daily with palovarotene through oral gavage using a previously published protocol^58. Palovarotene (Hycultec) was dissolved in DMSO and diluted 1:4 with corn oil. Mice received palovarotene at a dose of 100 μg/mouse for the first five days and 50 μg/mouse for the remainder of the experiment (days 6-14). Two weeks after BMP-2 injection, the legs were harvested for analysis. This experiment was performed three times with 3-11 mice per group. To analyze the chondrogenic phase of HO, we performed an experiment as described above that was terminated on day 8. This was performed once with 4-6 mice per group.
(§1) For systemic Tfr2-ECD treatment, WT mice were treated every other day with Tfr2-ECD intraperitoneally for two weeks. Mice received 250 μg Tfr2-ECD (10 mg/kg BW) per injection for the first 10 days after BMP-2/matrigel injection into the muscle and 125 μg per injection (5 mg/kg BW) for the remaining time. This experiment was performed once with 8-10 mice per group. Drop-weight HO: This experiment was performed according to Liu et al. with minor modifications^65. Female 10-12-week-old WT mice were anesthetized and placed on a ridge of a plastic container over which the right leg was bent so the femur was lying horizontally. Mice received an injection of 1 μg BMP-2 mixed in 50 μl matrigel. Afterwards, a stainless-steel ball of 16 g (16 mm diameter) was dropped from a distance of 80 cm height onto the quadriceps muscle. Mice either received a single dose of 1 μg Tfr2-ECD, which was co-injected with the BMP-2/matrigel mixture, or palovarotene (Hycultec), which was administered daily by oral gavage. Palovarotene was dissolved in DMSO and diluted 1:4 with corn oil. […]

[2] = system: trauma-induced heterotopic ossification; assay: Trauma-potentiated (drop-weight) heterotopic ossification model; format: in vivo; conditions: WT mice; after three weeks; Tfr2-ECD single dose, palovarotene or ibuprofen daily
Description: as §1, with “oil. Mice received palovarotene at a dose of 100 μg/mouse for the first five days and 50 μg/mouse for the remainder of the experiment (days 621). One group of mice received ibuprofen via the drinking water at a dose of […] which was changed every other day^66.” for “oil.”

[3] = WT mice, day 8, systemic treatment, Safranin O staining

B1: Tfr2-ECD: Recombinant full-length extracellular domain (aa 103-798) of murine Tfr2, His-tagged, expressed in Sf9 insect cells (protein, listed as Mus musculus)
chain: RGSCQACGDSVLVVDEDVNPEDSGRTTLYWSDLQAMFLRFLGEGRMEDTIRLTSLRERVAGSARMATLVQDILDKLSRQKLDHVWTDTHYVGLQFPDPAHANTLHWVDADGSVQEQLPLEDPEVYCPYSATGNATGKLVYAHYGRSEDLQDLKAKGVELAGSLLLVRVGITSFAQKVAVAQDFGAQGVLIYPDPSDFSQDPHKPGLSSHQAVYGHVHLGTGDPYTPGFPSFNQTQFPPVESSGLPSIPAQPISADIADQLLRKLTGPVAPQEWKGHLSGSPYRLGPGPDLRLVVNNHRVSTPISNIFACIEGFAEPDHYVVIGAQRDAWGPGAAKSAVGTAILLELVRTFSSMVSNGFRPRRSLLFISWDGGDFGSVGATEWLEGYLSVLHLKAVVYVSLDNSVLGDGKFHAKTSPLLVSLIENILKQVDSPNHSGQTLYEQVALTHPSWDAEVIQPLPMDSSAYSFTAFAGVPAVEFSFMEDDRVYPFLHTKEDTYENLHKMLRGRLPAVVQAVAQLAGQLLIRLSHDHLLPLDFGRYGDVVLRHIGNLNEFSGDLKERGLTLQWVYSARGDYIRAAEKLRKEIYSSERNDERLMRMYNVRIMRVEFYFLSQYVSPADSPFRHIFLGQGDHTLGALVDHLRMLRADGSGAASSRLTAGLGFQESRFRRQLALLTWTLQGAANALSGDVWNIDNNF
modifications: His tag
notes: Recombinant full-length extracellular domain (aa 103-798) of murine Tfr2, His-tagged, expressed in Sf9 insect cells
Heterotopic ossification (bone volume by μCT) ([1]; Tfr2-/- mice, co-application of Tfr2-ECD with BMP-2): significantly inhibited | Number of chondrocytes (chondrogenic phase of HO) [1, 3]: suppressed | Production of cartilage (chondrogenic phase of HO) [1, 3]: suppressed | Heterotopic ossification (bone volume by μCT) ([1]; WT mice, local Tfr2-ECD co-injected with BMP-2 into the muscle): significant reduction in bone formation; also recorded: completely abrogated; also recorded: reduced; also recorded: inhibited | Heterotopic ossification (bone volume by μCT) ([1]; WT mice, systemic treatment, i.p. injections every other day): reduced; also recorded: inhibited | New bone formation in the muscle (trauma-induced HO, μCT) [2]: inhibited new bone formation in the muscle comparable to palovarotene
